From the DeepSol protein solubility set come the findings set out here.

This series is described as follows: soluble on expression in E. coli; label from the status in PepcDB or PDB records.
Turning to “MSILMPVRNEERFLPAALASLCRQSLTAWELIVVDDGSTDDTPELLRVAAARDRRVRVFNNAGAGLVDALNYGLAHCRAELVARMDGDDISHPQRLERQAAALDADPGLGLVATRFRHFPRHSVGLGMRAYEEWQNGLLTHEEIMRDRFVESPVVHPSVMARRQALTDAGGYRKTGWAEDYDLWLRLAAGGVRFTRLPEVLFFWRERPERATRTMGEYAADAFRACKIHHLCQGFLLGVDNVTLAGAGLEGRAWQRALAREGVRVGRWLDVDPRKQGRILHGAPVTAPDDVRAGAEKILVTVGTRGARDGVRAWARRAGLREGEDFVCVTLEHHHHHH”, the “soluble on expression in E. coli” value is listed as “not soluble”.

In the case of “MSLKIGPILRSNVNRSITGDFDFREADLSLIRNFPNARVSLRDITLTTAAPFEGDTLFKAREAYLVMGIGELFKGAGEPIGIRELFVSGADLRLRLDAEERPNYLVAAEDPAATGATAASDGFTFDLQGYQIADSKISYMDQSSGISFLLEDIQHTGSGDLSLAESRLETRTDARISLGMDSVQYLDRNSLQLDARIGIDLETDTYTFLENEGLINQMPLVFEGSVQLVEEGQEIDLDFRTPSSDFKNFLALIPEAYSKSLEEVRTSGQFTLEGSITGRSDDTRIPNLDIRMEAVDAAFRYPDLPKGIDDINFSARLLNTTGIAGDTYLEIPAAGFRIDQDVFNMSGNIRSLTGNPEVDAALKGTINLASLDQAYPVELAPGLSGVLRADVQTAFDMASVENKQYGNTRTSGSLQLSNLNFRADNFAEPVKIREARLRFDPVEARLESLSGSLGQSDFTLSGTVRDYLGYLLADGILKGQFSLTSNQLLVSDFMSPEDPGQAEKETGADARASGQAPDGGPAFQIPAAIDVSIRGQAASVVYDGLPLRNVSGNLQIRDQELQLRDVRSDALDGKLALNGTVATGEGLPRFNMDLGIDGFRIRETLESIELFETLAPIASIVEGKLNSRVQLSGLLNSDFSPDLMSLAGNVVAEVLASDITGTRAKVLEALDARMDFFNMEDLDLKGLKTALNFENGLVTVKPFSFTYRDMEVSVAGSHSFDQQLNYTATLQVPAKYLGSDVNRLVTELQEPGLKEGHHHHHH”, the “soluble on expression in E. coli” value was “not soluble”.

In the case of “AHHHHHHGSNSKEFRKIALVGASKNPAKYGNIILKDLLSKGFEVLPVNPNYDEIEGLKCYRSVRELPKDVDVIVFVVPPKVGLQVAKEAVEAGFKKLWFQPGAESEEIRRFLEKAGVEYSFGRCIMVETSNKKIFLEV”, the “soluble on expression in E. coli” value is “soluble”.

For the sequence “MRNFDLSPLYRSAIGFDRLFNHLENNQSQSNGGYPPYNVELVDENHYRIAIAVAGFAESELEITAQDNLLVVKGAHADEQKERTYLYQGIAERNFERKFQLAENIHVRGANLVNGLLYIDLERVIPEAKKPRRIEIN”, the “soluble on expression in E. coli” value is given as “not soluble”.

For the sequence “MEKTRANSHLRSQPIDWTIEEVIQYIESNDNSLAVHGDLFRKHEIDGKALLRLNSEMMMKYMGLKLGPALKICNLVNKVNGRDHHHHHH”, the “soluble on expression in E. coli” value was “soluble”.

On to “MGSDKIHHHHHHMKKLFVLFLAVLSVLVLAEVKNPDTIIDATIGEPDTLDPHFAYDTASGEVIYNVYENLIAYKGESLTEFEPRLAERWEILDDGKTYKFYIRKGVKFHEGGDLTPEDVEYSFERGLIFDPTAGPMWMLWEALFGVDSLETFVEEKIGKPYSELFDENGEPLPEYRDALIKIYTDYIDPAIEVEGDAVVFHLVRPFAPFMYILAQSASWSAVLDKEWCIEIGCWDGRADTWWKYHDIRKEDSPLYARMNGTGPFKFVEWDRAQQKVILERNDNYWREPAKIKRVIIWGIDEWSTRRAMFLQGDADICAVPTQYLEQVEGKPGVTVVKGLPELAVTSLHFAWNVPEDSKYIGSGKLDGNGIPPDFFSDENVRKAFIYAFDYDTFINEVLKGLGRKIPTDLPEGLLGFNEELLNDPDAPHFDIVKATEYFKKAWNGEVWKKGFKITLLYNTGNEVRRQAAEMLKAYIEMINPKFKVEVRGVQWPTYLDATKRGEVPAFIIGWLADYPDPHNFIFTYYHSAGVYSGRQGENFRKFVSTPHPDLGGRSLDELIEEAIAKTDPAERQALYEEIQRFAMKHALGMPLYQPLGVRVQRSWVKGWYHNPMRPGDDYYVLWKAEE”, for which the “soluble on expression in E. coli” value is reported as “not soluble”.

Regarding “ESSRSAMMYIQELRSGLRDMHLLSCLESLRVSLNNNPVSWVQTFGAEGLASLLDILKRLHDEKEETSGNYDSRNQHEIIRCLKAFMNNKFGIKTMLETEEGILLLVRAMDPAVPNMMIDAAKLLSALCILPQPEDMNERVLEAMTERAEMDEVERFQPLLDGLKSGTSIALKVGCLQLINALITPAEELDFRVHIRSELMRLGLHQVLQELREIENEDMKVQLCVFDEQGDEDFFDLKGRLDDIRMEMDDFGEVFQIILNTVKDSKAEPHFLSILQHLLLVRNDYEARPQYYKLIEECVSQIVLHKNGTDPDFKCRHLQIDIERLVDQMIDKTKVEKSEAKATELEKKLDSELTARHELQVEMKKMENDFEQKLQDLQGEKDALDS”, the “soluble on expression in E. coli” value was “soluble”.

With “RATPRMEDLASTDLSTRATGSINAVYFTNWGIYGRNFQPADLQASKILHVLYSFMNLRVDGTVYSGDTYADLEKHYSDDSWNDIGTNAYGCVKQLYKLKKANRSLKIMLSIGGWTWSTNFPAAASTEATRATFAKTAVEFMKDWGFDGIDVDWEYPASETDANNMVLLLQRVRQELDSYSATYANGYHFQLSIAAPAGPSHYNVLKLAQLGSVLDNINLMAYDYAGSWDSVSGHQTNLYPSTSNPSSTPFSTKAAVDAYIAAGVPASKIILGMPIYGRAFVGTDGPGKPYSTIGEGSWESGIWDYKVLPKAGATVITDSAAGATYSYDSSSRTMISYDTPDMVRTKVSYAKGLGLGGSMFWEASADKTGSDSLIGTALSSMGSHDSTQNCLSYPNSKFDNIKNSLS”, the “soluble on expression in E. coli” value is reported as “soluble”.

“MIPFDYERATDVDSAVATVTGDPRASFLAGGTNLVDHMKLGVARPHLLVDVSRLPLGDVVELPDGGLRIGAAVRNSDLAAHDVVRARYPMLSRALLSGASGQLRNLATTAGNLLQRTRCVYFQDVTTPCNKREPGTGCSAIGGYVRYHAILGASEHCVAVHPSDMAVAMTALDGVVVVRGADGERRIPLSEFYRLPGDRPDRDTVLAHGDLVTAVELPPPPSGNRSAYRKVRDRASFAFAVVSVAAELTIGDTSITSARVALGGVAHRPWRATLAEEVLVGSPPTEATYTEAAAAELAAAQPLPGNEFKVALTRRVLASVLRSLAEEARR”: the “soluble on expression in E. coli” value is recorded as “soluble”.

Turning to “AENNNLKLASTMEGRVEQLAEQRQVIEAGGGERRVEKQHSQGKQTARERLNNLLDPHSFDEVGAFRKHRTTLFGMDKAVVPADGVVTGRGTILGRPVHAASQDFTVMGGSAGETQSTKVVETMEQALLTGTPFLFFYDSGGARIQEGIDSLSGYGKMFFANVKLSGVVPQIAIIAGPCAGGASYSPALTDFIIMTKKAHMFITGPQVIKSVTGEDVTADELGGAEAHMAISGNIHFVAEDDDAAELIAKKLLSFLPQNNTEEASFVNPNNDVSPNTELRDIVPIDGKKGYDVRDVIAKIVDWGDYLEVKAGYATNLVTAFARVNGRSVGIVANQPSVMSGCLDINASDKAAEFVNFCDSFNIPLVQLVDVPGFLPGVQQEYGGIIRHGAKMLYAYSEATVPKITVVLRKAYGGSYLAMCNRDLGADAVYAWPSAEIAVMGAEGAANVIFRKEIKAADDPDAMRAEKIEEYQNAFNTPYVAAARGQVDDVIDPADTRRKIASALEMYATKRQTRPAKKHGNFPC”, the “soluble on expression in E. coli” value is reported as “soluble”.

“MSAYSMLSDRIVMAKELIKRAESLSRSRKGGIEGGAKLCSKLKAELKFLQKIEAGKVAIKESHLQSTNLTHLKAIVESAENLEEVVSVLRVFGYTDTLGEKQTLVVDVVANGGHTWVKAIGRKAEALHNIWLGRGQYGDKSIIEQAEDFLQASRQQPVQYSNPHIVFAFYNSVSSPMADKLKDMGISVRGDIVAVNSLLNHPEEFQLSESESDDEGQELLQVTRVDRDNVLARVAFPTEIKVDVCKKVNLDITTLITYVSAMSYGGCHFVFKEKVLTEQAEQERKERVLPQLEAFMKDKELFACESAVKDFQSILDTLGGPGERERADVLIKRISVVPDQPSERALRLVASSKINSRSLTIFGTGDTLKAITMTANSGFVRAANNQGVKFSVFIHQPRALTESKEAFAVPLPKDLTDDSAH”: the “soluble on expression in E. coli” value is “not soluble”.

As for “MDELLNRLRQTWHSTIPVSEFMQIAPLSFTDGELSVSAPLAPNINLHHTMFAGSIYTIMTLTGWGMVWLQQQLLNVDGDIVLADAHIRYLAPVTSAPEVKVRWPDTNLSPLQRGRKAKVKLEVQLFCDGKLCAQFDGLYVSVPKMLEHHHHHH”, the “soluble on expression in E. coli” value was “soluble”.

“MGSDKIHHHHHHMFLSPYFLKQNQSISVSAQQASDFAKKIAQDFNPIHDVGAKRFCVPGDLLFALVLTQYGLSQSMKFTFAGMVGDGVELQFPEQVNDSFSICDNRDKTYLNVSRLGDISRCDAQTESFIRHYVAFSGHNFIDILMPLMKQHQVMINPDRPLVIYESMSFDLTTLDFVEVQLSLVQQELKIDGKRGDVTLHFELHSGDTLVGTGIKTLVMSGLRAYEEDQVQQMCAAYEGRKTDF”: the “soluble on expression in E. coli” value is given as “not soluble”.

Consider “MSSVAVLTQESFAEHRSGLVPQQIKVATLNSEEESDPPTYKDAFPPLPEKAACLESAQEPAGAWSNKIRPIKASVITQVFHVPLEERKYKDMNQFGEGEQAKICLEIMQRTGAHLELSLAKDQGLSIMVSGKLDAVMKARKDIVARLQTQASATVPIPKEHHRFVIGKNGEKLQDLELKTATKIQIPRPDDPSNQIKITGTKEGIEKARHEVLLISAEQDKRAVERLEVEKAFHPFIAGPYNRLVGEIMQETGTRINIPPPSVNRTEIVFTGEKEQLAQAVARIKKIYEEKKKKTTTIAVEVKKSQHKYVIGPKGNSLQEILERTGVSVEIPPSDSISETVILRGEPEKLGQALTEVYAKVASSKIKLCSDNS”, for which the “soluble on expression in E. coli” value is given as “not soluble”.

For the sequence “MSLADNRDELKETLRTLLRDNPDLVLEVLREHSETVLEIAQQGANQRRRKVLVAQWKTDLEDPKKVNLADRPVRGEANAPVTVVAYSDFTCPYCQQAAGTVEMLLANYKGKVRYVFKQMPLETHENARTASNYYVAASLQDPAKAWKLYEAVFADRDRLVTEGEPFLKKVAQEAGLDMQRLATDIKGRKVKALIEEDMAEARKLGVQGTPYFLVNDLVVRGALPLDLFSDAVDMALEKAGAKEGHHHHHH”, the “soluble on expression in E. coli” value is listed as “soluble”.

On to “MAHHHHHHMGTLEAQTQGPGSMIFNVLTIFPQMFPGPLGVSNLGSALKKGLWTLNVFDIRAFANNKHNTVDDTPYGGGPGMLLRADVLGRCIDEVLSLHPNTKLMFTSPRGVSFTQDIARQTMNFDNITLLCGRFEGIDERVVDFYKLQEVSIGDYVLSGGELAAMVIIDTCVRMVPGVIGNAESLKQESMEGSLEYPQYTRPASWKGMEVPEVLLTGNHGEIEKWRRNASLSITAARRPDLLKDRYGENDVE”, for which the “soluble on expression in E. coli” value was “soluble”.

With “GAMEGIKVFLHERELWLKFHEVGTEMIITKAGRRMFPSYKVKVTGLNPKTKYILLMDIVPADDHRYKFADNKWSVTGKAEPAMPGRLYVHPDSPATGAHWMRQLVSFQKLKLTNNHLDPFGHIILNSMHKYQPRLHIVKADENNGFGSKNTAFCTHVFPETAFIAVTSYQNHKITQLKIENNPFAKGFRGSDDMELHRMSRMQ”, the “soluble on expression in E. coli” value is “soluble”.

Take “MLSDIQHDQFGFIKGCIISVIWLSLSRTLNRDQLNLDRFEFWQPTSQLLVLDVCLFDAFALEHHHHHH”: the “soluble on expression in E. coli” value is reported as “not soluble”.

“MKYKSVFDIIGPVMVGPSSSHTAGAVRIGLVARKLFGRKPTWARISFYGSFAETYRGHGTDVAIVAGLLGFDTFDERLPNALEIAQAEGVDVSFSAEEAIPHHPNTARLRIGDDEGELELVGISIGGGKIEIVELNGFALKLSGHHPALLIMHNDRYGTIGAVASVLAKRKINIGHMEVSRKEKGKEALMAIEVDQPLTDDLIQELEQLPNIIQVAKLAD”: the “soluble on expression in E. coli” value is “not soluble”.
